Article PMC3032553, “Structural Basis for c-di-GMP-Mediated Inside-Out Signaling Controlling Periplasmic Proteolysis” (PLoS Biology, 2011)
Substitutions are numbered along the chain they refer to. Names may count otherwise.

What was measured:
[1] = biological target: T1, LapD^dual (Pseudomonas fluorescens, UniProt Q3KK31); test: radioligand filter binding, one-site fit; details: read-out: Apparent K d
T1 construct: cytoplasmic S helix-GGDEF-EAL dual domain module, residues 220-648, lacks HAMP; purified; apo monomer, dimerizes with c-di-GMP
T1 sequence (Q3KK31 220-648): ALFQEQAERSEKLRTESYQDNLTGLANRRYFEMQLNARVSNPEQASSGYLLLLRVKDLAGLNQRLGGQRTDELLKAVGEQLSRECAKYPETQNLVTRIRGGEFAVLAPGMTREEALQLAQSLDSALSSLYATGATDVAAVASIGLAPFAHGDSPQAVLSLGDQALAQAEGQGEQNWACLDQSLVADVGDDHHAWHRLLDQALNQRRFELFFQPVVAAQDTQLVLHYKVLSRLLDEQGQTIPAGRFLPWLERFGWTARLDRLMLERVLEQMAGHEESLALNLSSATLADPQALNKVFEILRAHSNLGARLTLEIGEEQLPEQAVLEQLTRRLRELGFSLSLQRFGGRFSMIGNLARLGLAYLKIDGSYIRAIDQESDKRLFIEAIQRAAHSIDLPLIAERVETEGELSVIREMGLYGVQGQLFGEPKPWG
Source text: (§1) radioligand filter binding, one-site fit on LapD^dual

[2] = biological target: T2, LapD^dual (Pseudomonas fluorescens, UniProt Q3KK31, A602E); test: radioligand filter binding, one-site fit; details: read-out: Apparent K d
T2 construct: cytoplasmic S helix-GGDEF-EAL dual domain module, residues 220-648, lacks HAMP; purified; apo monomer, dimerizes with c-di-GMP
T2 sequence (Q3KK31 220-648 A602E): T1 sequence (Q3KK31 220-648)
Source text: as §1

[3] = biological target: T3, LapD^dual (Pseudomonas fluorescens, UniProt Q3KK31, A602E/S229D); test: radioligand filter binding, one-site fit; details: read-out: Apparent K d
T3 construct: cytoplasmic S helix-GGDEF-EAL dual domain module, residues 220-648, lacks HAMP; purified; apo monomer, dimerizes with c-di-GMP
T3 sequence (Q3KK31 220-648 S229D/A602E): T1 sequence (Q3KK31 220-648)
Source text: as §1

[4] = biological target: T4, LapD^dual (Pseudomonas fluorescens, UniProt Q3KK31, E262A); test: radioligand filter binding, one-site fit; details: read-out: Apparent K d
T4 construct: cytoplasmic S helix-GGDEF-EAL dual domain module, residues 220-648, lacks HAMP; purified; apo monomer, dimerizes with c-di-GMP
T4 sequence (Q3KK31 220-648 E262A): T1 sequence (Q3KK31 220-648)
Source text: as §1

[5] = biological target: T5, LapD^dual (Pseudomonas fluorescens, UniProt Q3KK31, S229D); test: radioligand filter binding, one-site fit; details: read-out: Apparent K d
T5 construct: cytoplasmic S helix-GGDEF-EAL dual domain module, residues 220-648, lacks HAMP; purified; apo monomer, dimerizes with c-di-GMP
T5 sequence (Q3KK31 220-648 S229D): T1 sequence (Q3KK31 220-648)
Source text: as §1

[6] = biological target: T6, LapD^EAL (Pseudomonas fluorescens, UniProt Q3KK31, A602E); test: radioligand filter binding, one-site fit; details: read-out: Apparent K d
T6 construct: isolated degenerate EAL domain, residues 399-648; purified; dimer with c-di-GMP
T6 sequence (Q3KK31 399-648 A602E): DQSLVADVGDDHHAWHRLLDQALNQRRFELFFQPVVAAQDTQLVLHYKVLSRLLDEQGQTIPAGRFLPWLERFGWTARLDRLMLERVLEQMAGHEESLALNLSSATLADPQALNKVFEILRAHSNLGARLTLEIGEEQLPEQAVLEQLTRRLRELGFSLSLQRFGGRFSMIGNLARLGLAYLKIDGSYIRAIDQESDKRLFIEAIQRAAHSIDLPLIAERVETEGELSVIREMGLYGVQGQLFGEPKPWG
Source text: radioligand filter binding, one-site fit on LapD^EAL

[7] = biological target: T7, His6-tagged LapG (P. fluorescens); test: pull-down; His6-LapG bound to NiNTA resin, untagged LapD output domain variants added, 1 h at 4°C; 25 mM Tris-HCl pH 8.4, 75 mM NaCl, 25 mM KCl, 40 mM imidazole; eluates on SDS-PAGE (Coomassie; SYPRO Ruby for quantification); details: both partners purified
T7 chain: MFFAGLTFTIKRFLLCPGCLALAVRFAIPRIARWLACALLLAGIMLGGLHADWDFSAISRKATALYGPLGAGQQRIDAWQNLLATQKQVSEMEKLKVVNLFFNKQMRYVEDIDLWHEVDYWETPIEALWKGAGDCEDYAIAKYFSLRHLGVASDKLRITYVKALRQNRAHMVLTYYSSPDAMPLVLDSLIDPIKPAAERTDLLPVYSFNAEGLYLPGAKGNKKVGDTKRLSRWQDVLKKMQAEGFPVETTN

[8] = biological target: the molecule itself; test: crystal structure; LapD^output, selenomethionine-derivatized, 1.8 Å, two molecules per asymmetric unit
[9] = biological target: the molecule itself; test: SEC-MALS; protein incubated with 500 µM c-di-GMP for 30 min at room temperature before SEC, no c-di-GMP in the mobile phase; 20-320 µM injected protein; 25 mM Tris-HCl pH 8.4, 250 mM NaCl; 25°C
[10] = biological target: the molecule itself; test: AUC; sedimentation equilibrium with 20 µM c-di-GMP; 1x, 2x, 4x dilutions of ~12 µM protein; 25 mM Tris pH 7.5, 150 mM NaCl; 20°C; global fit with dinucleotide binding and dimerization of the c-di-GMP-bound form; monomer:dimer equilibrium
[11] = biological target: the molecule itself; test: AUC; sedimentation equilibrium, no c-di-GMP; 1x, 2x, 4x dilutions of ~12 µM protein; 25 mM Tris pH 7.5, 150 mM NaCl; 20°C; 10,000, 14,000 and 20,000 rpm, global fit; monomer:dimer equilibrium

`Nc1nc2c(ncn2[C@@H]2O[C@@H]3CO[P@](=O)(O)O[C@H]4[C@@H](O)[C@H](n5cnc6c(=O)[nH]c(N)nc65)O[C@@H]4CO[P@](=O)(O)O[C@H]3[C@H]2O)c(=O)[nH]1` [c-di-GMP] was tested, and the Kd [1] was 27 ± 4.7 µM, the Kd [2] was > 1000 µM and the Kd [3] was > 1000 µM. The Kd [4] was 15.3 ± 1.7 µM, the Kd [5] was 15.1 ± 1.8 µM and the Kd [6] was 36.3 ± 5.4 µM.

B1: LapD^output, wild-type (periplasmic output domain of LapD, residues 22-151) (domain or fragment, P. fluorescens Pf0-1, UniProt Q3KK31 22-151, looked up)
chain: SFMVSLESSRTQYVNQLRSHAQDAATALALSLTPNIDDPAMVELLVSSIFDSGYYSSIRVVDLKTDQTIVERNGIPAVTNVPDWFVKLIGLEPAGGDALVSRGWEQAARVEVVSHPMFALAKLWQSALGS
notes: LapD, P. fluorescens Pf0-1, residues 22-151 (periplasmic output domain); untagged in the pull-down; domain-swapped dimer in the crystal; The crystals were grown with selenomethionine-derivatized protein; the final model spans residues 23-150; also called periplasmic domain of LapD; source: produced following standard molecular biology and liquid chromatography techniques, purified (protocols in …)
With B1 the “stoichiometry N” value [7] was 2 LapG molecules per output domain dimer and the binding result [8] was “binds”.

B2: LapD^EAL, wild-type (EAL domain of LapD, residues 399-648) (domain or fragment, P. fluorescens Pf0-1, UniProt Q3KK31 399-648, looked up)
chain: T6 sequence (Q3KK31 399-648 A602E)
notes: LapD, P. fluorescens Pf0-1, residues 399-648 (degenerate EAL domain); also called isolated EAL domain; LapD^EAL•c-di-GMP; source: produced following standard molecular biology and liquid chromatography techniques, purified (protocols in Text S1)
B2: binds [9].

B3: LapD^dual S229D (domain or fragment, P. fluorescens Pf0-1, UniProt Q3KK31 220-648, looked up)
chain: T1 sequence (Q3KK31 220-648) with S10D
notes: LapD, P. fluorescens Pf0-1, residues 220-648, mutation S229D in the S helix; also called S helix-EAL interface mutant; source: produced following standard molecular biology and liquid chromatography techniques, purified (protocols in Text S1)
Work on B3 yielded a Kd [10] of 0.18 µM and a Kd [11] of 420 µM.

B4: LapD^dual E262A (domain or fragment, P. fluorescens Pf0-1, UniProt Q3KK31 220-648, looked up)
chain: T1 sequence (Q3KK31 220-648) with E43A
notes: LapD, P. fluorescens Pf0-1, residues 220-648, mutation E262A in the GGDEF domain; also called GGDEF-EAL interface mutant; source: produced following standard molecular biology and liquid chromatography techniques, purified (protocols in Text S1)
B4: binds [9].

B5: LapD^dual, wild-type (dual GGDEF-EAL domain module of LapD, residues 220-648) (domain or fragment, P. fluorescens Pf0-1, UniProt Q3KK31 220-648, looked up)
chain: T1 sequence (Q3KK31 220-648)
notes: LapD, P. fluorescens Pf0-1, residues 220-648 (S helix, degenerate GGDEF and EAL domains); also called apo-LapD^dual; intracellular module of LapD; source: produced following standard molecular biology and liquid chromatography techniques, purified (protocols in Text S1)
B5 was tested, and the Kd [10] was 0.67 µM and the Kd [11] was 400 µM.
